Results on two molecules are retold here after patent US10787678 (UNIVERSITY OF GEORGIA RESEARCH FOUNDATION, dated 2020).

For experiment [1], the target named is T1, Cry3Bb toxin (Bacillus thuringiensis, UniProt Q06117 64-652).
T1 construct: also called Cry3Bb protein; trypsinized Cry3Bb
Briefly: ELISA, biotinylated peptide titrated on plate-coated activated Cry3Bb; one-site saturation binding fit of specific binding.

For experiment [2], the target named is T1, Cry3Bb toxin. Briefly: cell-based or functional assay.

T1 sequence (Q06117 64-652 limits assumed): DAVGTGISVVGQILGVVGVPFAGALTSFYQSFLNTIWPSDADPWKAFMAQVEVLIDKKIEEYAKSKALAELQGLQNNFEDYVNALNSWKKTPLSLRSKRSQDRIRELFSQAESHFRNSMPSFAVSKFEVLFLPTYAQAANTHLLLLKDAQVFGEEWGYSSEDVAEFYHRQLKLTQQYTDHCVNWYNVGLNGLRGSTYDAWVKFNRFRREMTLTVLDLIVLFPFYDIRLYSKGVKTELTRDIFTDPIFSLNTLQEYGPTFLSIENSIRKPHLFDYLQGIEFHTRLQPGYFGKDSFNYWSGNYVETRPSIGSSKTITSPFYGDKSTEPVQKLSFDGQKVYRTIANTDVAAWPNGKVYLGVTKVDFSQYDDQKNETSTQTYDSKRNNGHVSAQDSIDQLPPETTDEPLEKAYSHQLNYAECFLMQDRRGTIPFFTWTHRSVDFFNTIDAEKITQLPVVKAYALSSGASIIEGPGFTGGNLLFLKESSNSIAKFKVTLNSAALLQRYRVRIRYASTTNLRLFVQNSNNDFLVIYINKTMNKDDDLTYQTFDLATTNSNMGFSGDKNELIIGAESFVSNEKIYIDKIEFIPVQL

B1: AdCad1-CR9 peptide (peptide)
chain: TEMIYKLTVEASIKEQTQINGKPTFARCEFNVGFFDKDNTDPIFKNKHEDTHEMAEEDDTLFYVLIENATYAKEDVPDDLSTFYLLAEGERDIFDVDKFTGKVTLNKPLDYETKKSHSLTIQSSNSDKLKLNASEETKLHLTIIVTDINDHAPVM
modifications: biotinylated with sulfo-NHS-photocleavable biotin (50-fold molar excess) in the binding assay
notes: Expressed in E. coli from pET-30a (Nde I / Xho I), purified from inclusion bodies on a Ni-chelating column; In the bioassays it was used unlabelled, as inclusion bodies; also called biotinylated-AdCad1-CR9; not shown: C-terminal His-tag from the pET-30a vector
The Kd is the equilibrium constant for the complex coming apart. Regarding B1, binding in experiment [1] was characterised by a dissociation constant (Kd) of 23.2 nM. In addition, in experiment [2], the “larval mortality with Cry3Bb (10 ug/cm^2) plus peptide at a 1:10 mass ratio, against 10% with toxin alone” value is above 25%.

B2: AdCad1-MPED peptide (peptide)
chain: DSDSYITVLPLVDAVSTAKLVTIHATDPDDTSEVQYQIESCIGSGDLLQKLCGNNPFEINKISGEISAQIQSANLSKWDGHFNLTVTAADEAGFDDKNHTDEAVVTLYLVTKLHLVAFDFENSLEQVQNKSNEIKTILDEQFAETSDGGTPYVATVQGANAKSDEITTATVYFLNLKQQKPVNKDNIYSYCTNTQYFGSMRSAFLAEGLSLMSFDGTSNETEDMEEILT
modifications: biotinylated with sulfo-NHS-photocleavable biotin (50-fold molar excess) in the binding assay
notes: Expressed in E. coli from pET-30a (Nde I / Xho I), purified from inclusion bodies on a Ni-chelating column; In the bioassays it was used unlabelled, as inclusion bodies; also called biotinylated-AdCad1-MPED; not shown: C-terminal His-tag from the pET-30a vector
In experiment [1], B2 registered a Kd of 40.6 nM. Further, in experiment [2], the “larval mortality with Cry3Bb (10 ug/cm^2) plus peptide at a 1:10 mass ratio, against 10% with toxin alone” value was above 25%.
